Source: article PMC8179133, “PilB from Streptococcus sanguinis is a bimodular type IV pilin with a direct role in adhesion” (Proceedings of the National Academy of Sciences of the …, 2021)

Experiments:
[1] = target: fibronectin from human plasma (human); assay: ELISA; putative ligands (5 µg/mL in carbonate-bicarbonate buffer, 50 µL) adsorbed on MaxiSorp plates O/N at 4 °C; blocked 1 h with 3% BSA or 1% gelatin in PBS; serial twofold dilutions of 6His-PilB (40 to 0.625 µg/mL) for 2 h at 37 °C; detected with anti-6His antibody and HRP-linked anti-rabbit IgG, read at 450 nm; Kd by nonlinear regression (One site - Total and nonspecific binding) with BSA or gelatin as nonspecific binding control
[2] = target: fibrinogen from human plasma (human, UniProt P02671 36-866; P02675 45-491; P02679 27-453, Plasma-purified disulfide-linked (AalphaBbetagamma)2 hexamer, N-glycosylated on the beta and gamma chains, fibrinopeptides A and B retained. Limits are not printed. The alpha chain is taken as the mai); assay: ELISA; putative ligands (5 µg/mL in carbonate-bicarbonate buffer, 50 µL) adsorbed on MaxiSorp plates O/N at 4 °C; blocked 1 h with 3% BSA or 1% gelatin in PBS; serial twofold dilutions of 6His-PilB (40 to 0.625 µg/mL) for 2 h at 37 °C; detected with anti-6His antibody and HRP-linked anti-rabbit IgG, read at 450 nm; Kd by nonlinear regression (One site - Total and nonspecific binding) with BSA or gelatin as …; conditions: both partners purified
Sequence of fibrinogen from human plasma (P02671 36-866, chain 1 of 3): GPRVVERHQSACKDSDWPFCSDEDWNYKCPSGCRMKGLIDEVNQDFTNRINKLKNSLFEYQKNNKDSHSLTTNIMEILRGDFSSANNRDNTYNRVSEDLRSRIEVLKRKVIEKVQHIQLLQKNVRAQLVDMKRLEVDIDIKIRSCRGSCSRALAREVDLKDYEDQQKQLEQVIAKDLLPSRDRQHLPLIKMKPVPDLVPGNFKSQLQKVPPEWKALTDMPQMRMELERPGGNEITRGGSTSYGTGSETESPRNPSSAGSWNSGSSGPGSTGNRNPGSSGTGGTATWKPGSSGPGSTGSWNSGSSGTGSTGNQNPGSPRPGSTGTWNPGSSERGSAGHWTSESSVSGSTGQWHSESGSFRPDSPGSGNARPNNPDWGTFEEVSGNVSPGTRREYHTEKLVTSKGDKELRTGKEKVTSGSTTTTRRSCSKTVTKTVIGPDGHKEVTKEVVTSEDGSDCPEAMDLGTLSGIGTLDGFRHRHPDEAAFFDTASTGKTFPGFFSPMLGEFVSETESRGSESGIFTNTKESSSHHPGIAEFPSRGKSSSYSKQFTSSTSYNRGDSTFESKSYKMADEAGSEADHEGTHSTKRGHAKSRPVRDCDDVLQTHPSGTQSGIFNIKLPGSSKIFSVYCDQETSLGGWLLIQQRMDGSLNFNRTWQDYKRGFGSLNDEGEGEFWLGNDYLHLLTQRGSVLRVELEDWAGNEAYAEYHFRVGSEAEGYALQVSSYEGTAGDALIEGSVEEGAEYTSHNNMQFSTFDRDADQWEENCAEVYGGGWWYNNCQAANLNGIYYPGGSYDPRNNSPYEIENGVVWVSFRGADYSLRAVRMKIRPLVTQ
Sequence of fibrinogen from human plasma (P02675 45-491, chain 2 of 3): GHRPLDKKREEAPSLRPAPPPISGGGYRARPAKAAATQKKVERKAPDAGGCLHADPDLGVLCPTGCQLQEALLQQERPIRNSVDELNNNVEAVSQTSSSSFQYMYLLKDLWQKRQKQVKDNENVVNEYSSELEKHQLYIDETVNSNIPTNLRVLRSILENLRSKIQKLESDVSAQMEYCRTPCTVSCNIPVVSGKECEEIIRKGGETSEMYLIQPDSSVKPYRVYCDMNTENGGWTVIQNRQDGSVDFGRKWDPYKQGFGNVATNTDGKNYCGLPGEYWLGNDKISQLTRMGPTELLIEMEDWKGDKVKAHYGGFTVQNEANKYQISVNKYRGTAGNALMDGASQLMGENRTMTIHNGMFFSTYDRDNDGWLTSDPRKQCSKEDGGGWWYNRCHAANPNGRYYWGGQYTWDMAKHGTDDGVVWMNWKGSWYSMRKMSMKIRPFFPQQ
Sequence of fibrinogen from human plasma (P02679 27-453, chain 3 of 3): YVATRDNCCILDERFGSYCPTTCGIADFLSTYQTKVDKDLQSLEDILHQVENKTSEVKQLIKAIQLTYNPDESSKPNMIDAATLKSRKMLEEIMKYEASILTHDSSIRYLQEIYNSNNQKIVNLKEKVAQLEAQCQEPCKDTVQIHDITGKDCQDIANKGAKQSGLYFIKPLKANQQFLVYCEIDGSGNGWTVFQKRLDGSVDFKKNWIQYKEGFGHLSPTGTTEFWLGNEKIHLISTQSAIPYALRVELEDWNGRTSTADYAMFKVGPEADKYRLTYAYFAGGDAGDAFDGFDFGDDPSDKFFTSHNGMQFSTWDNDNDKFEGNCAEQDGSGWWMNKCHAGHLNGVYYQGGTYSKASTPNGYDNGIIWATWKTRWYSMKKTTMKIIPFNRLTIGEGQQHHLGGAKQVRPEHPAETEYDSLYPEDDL

Row | Molecule | Kd [1] | Kd [2]
1 | PilBvWA (from UniProt A0A0B7GP99 192-461) (domain or fragment) | 997 nM | –
2 | 6His-PilB_(36-461) (from UniProt A0A0B7GP99 36-461) (domain or fragment) | 494 nM | –
3 | 6His-PilB_(36-461) (domain or fragment, pilin module, short loop and vWA module; 48.4 kDa; synthetic gene codon optimized for E. coli; The 6His tag is noncleavable; also called native PilB; soluble portion of PilB; not shown: 6His, N-terminal, kept) SSRELIEREASIQAEMRTSMQYVDRTVGKATSIFILDDSKFKGSKQGLTREWSYIGLSADGKKVMNYVWNKQKQDWDVSELGTKSLYNMKLDLEFKTEGAYQDNRLISYNLTGKYPDTNNKLGIDTAISALNTKQVFSKVAKGKKGIAIAYRTDPIQGQMNIAVSFVFDTSGSMDWDLQGRNVKKTGNESRMDILRKKSVIMIKDLAEIGNISVNLVGFSTSAKYIQQNFSNLDNGTNTIIATITKRENLNPDGVTNPGDGLRYGMISLQSQPAQLKYIVLLTDGIPNAYLVDSRALYAGNRVDLSQGAGRVTFNNPIYDLSPTLGYEYSRLGYDLYSRDSITRENSIAYAGEVSKKFGLGIKRVNVIGFSGVNHEIAYGQSLTDRIGEGGMETKYVSATNEEALQKTFSDIKKQIQQDLWFVSGP | – | 865 nM
4 | PilBvWA (domain or fragment, PilB of Streptococcus sanguinis 2908, residues 192-461: only the von Willebrand factor A-like (vWA) module; expressed from pET28-pilB192-461; also called vWA module of PilB; PilB 192-461; source: E. coli BL21(DE3), purified; not shown: 6His, N-terminal, kept) QGQMNIAVSFVFDTSGSMDWDLQGRNVKKTGNESRMDILRKKSVIMIKDLAEIGNISVNLVGFSTSAKYIQQNFSNLDNGTNTIIATITKRENLNPDGVTNPGDGLRYGMISLQSQPAQLKYIVLLTDGIPNAYLVDSRALYAGNRVDLSQGAGRVTFNNPIYDLSPTLGYEYSRLGYDLYSRDSITRENSIAYAGEVSKKFGLGIKRVNVIGFSGVNHEIAYGQSLTDRIGEGGMETKYVSATNEEALQKTFSDIKKQIQQDLWFVSGP | – | 337 nM
